The target of the assay is T1, his 태그가 부착된 재조합 인간 CD38 (recombinant human CD38 extracellular domain, His-tagged) (human, UniProt P28907 43-300, biotinylated in part of the ForteBio assays (EZ-Link sulfo-NHS biotinylation)).
T1 construct: Bought from Sino Biological; also called rhCD38; rhCD38-his; not shown: histidine tag
T1 sequence: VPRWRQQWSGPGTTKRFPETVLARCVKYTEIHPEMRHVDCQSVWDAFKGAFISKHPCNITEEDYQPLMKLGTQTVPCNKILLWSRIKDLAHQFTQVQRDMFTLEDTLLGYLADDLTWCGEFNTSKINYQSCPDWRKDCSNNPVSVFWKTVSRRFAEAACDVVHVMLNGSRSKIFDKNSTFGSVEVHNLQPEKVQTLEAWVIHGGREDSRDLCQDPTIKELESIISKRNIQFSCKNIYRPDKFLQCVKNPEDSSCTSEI
As to the kind of experiment: affinity on recombinant human CD38 extracellular domain (Octet/Biacore); order of magnitude told in text.

In general, Kd refers to the free concentration of one partner at which half of the binding sites on the other are occupied at equilibrium, for simple one-to-one binding.

B1: aCD38-b-329 (antibody, human IgG1, V domains shown)
VH: QLQLQESGPGLVKPSETLSLTCTVSGGSISSSDYYWGWIRQPPGKGLEWIGSIYYSGSTYYNPSLKSRVTISVDTSKNQFSLKLSSVTAADTAVYYCARGQYSSGWYAYPFDMWGQGTMVTVSS
VL: EIVLTQSPGTLSLSPGERATLSCRASQSVRSSYLAWYQQKPGQAPRLLIYGASSRATGIPDRFSGSGSGTDFTLTISRLEPEDFAVYYCQQDGAVFTFGGGTKVEIK
notes: Human IgG1 with kappa constant region (P01857, P01834)
In the case of B1, the Kd was around 1 nM.
